According to patent publication US20250361274A1, “PEPTIDE AND PEPTIDE-CONTAINING AGENT” (PEPTIDREAM INC., priority 2022, published 2025):
Numbered stars: 1 amine (or outer) side, 2 acyl side, 3 side chain; on linkers, the order of the positions; unused ones are H or OH. Square brackets hold non-standard residues; d marks the D form. Ends that are not written are not given here. KCOpipzaa = N6-(4-(carboxymethyl)piperazine-1-carbonyl)-L-lysine, O=C(NCCCC[C@H](N[*:1])C(=O)[*:2])N1CCN(CC(=O)[*:3])CC1; Bph3C = (S)-2-amino-3-(3'-chloro-[1,1'-biphenyl]-4-yl)propanoic acid, O=C([C@H](Cc1ccc(-c2cccc(Cl)c2)cc1)N[*:1])[*:2]; pBph2F = (S)-2-amino-3-(2-fluoro-[1,1'-biphenyl]-4-yl)propanoic acid, O=C([C@H](Cc1ccc(-c2ccccc2)c(F)c1)N[*:1])[*:2]; pBph3F = (S)-2-amino-3-(3-fluoro-[1,1'-biphenyl]-4-yl)propanoic acid, O=C([C@H](Cc1ccc(-c2ccccc2)cc1F)N[*:1])[*:2]; Phe(4-(4-F-Ph)) = N[C@@H](Cc1ccc(-c2ccc(F)cc2)cc1)C(=O)O; 3Pal(6-Ph) = N[C@@H](Cc1ccc(-c2ccccc2)nc1)C(=O)O; Phe(4-COOH) = N[C@@H](Cc1ccc(C(=O)O)cc1)C(=O)O; Bip = N[C@@H](Cc1ccc(-c2ccccc2)cc1)C(=O)O; Ala(4-THP) = N[C@@H](CC1CCOCC1)C(=O)O; Hyp = O=C(O)[C@@H]1C[C@@H](O)CN1; Cba = N[C@@H](CC1CCC1)C(=O)O; Chg = N[C@H](C(=O)O)C1CCCCC1

Tests used:
BMP4 = target: T1, BMP4 (Homo sapiens, UniProt P12644); test: BMP4 signal transduction inhibitory activity: SMAD1 phosphorylation by BMP4 stimulus, AlphaLISA SureFire, A549 cells; format: cell-based
T1 sequence (P12644 293-408): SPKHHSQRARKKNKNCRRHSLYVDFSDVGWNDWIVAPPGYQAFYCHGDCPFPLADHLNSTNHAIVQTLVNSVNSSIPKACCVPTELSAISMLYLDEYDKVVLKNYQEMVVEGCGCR

BMP7 = target: T2, BMP7 (Homo sapiens, UniProt P18075); test: BMP7 signal transduction inhibitory activity: SMAD1 phosphorylation by BMP7 stimulus, A549 cells; format: cell-based
T2 sequence (P18075 293-431): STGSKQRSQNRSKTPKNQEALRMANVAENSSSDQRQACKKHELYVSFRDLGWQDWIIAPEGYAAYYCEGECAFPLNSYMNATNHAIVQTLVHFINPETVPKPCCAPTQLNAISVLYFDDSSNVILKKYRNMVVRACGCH
Summary of the method: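 Cell line A549; stimulus BMP7 10 nM; endpoint pSMAD1. Peptide doses: three concentrations (1–1,000 nM range) or 8 × 1/3 dilutions from 100/1,000 nM.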

[1] = BMP4 0.2 nM stimulus, peptide conc. in assay 0.02, 0.2, 2 nM, class symbols
[2] = BMP7 10 nM stimulus, peptide conc. in assay 10, 100, 1000 nM, class symbols
[3] = BMP4 0.2 nM, peptide 0.02, 0.2, 2 nM, Table 6
[4] = BMP7 10 nM, peptide 10, 100, 1000 nM, Table 6

Substance | aLIZA BMP4 (0.2 nM) % inh (BMP4; [1]) | aLIZA BMP7 (10 nM) % inh (BMP7; [2]) | aLIZA BMP4 (0.2 nM) % inh (BMP4; [3]) | aLIZA BMP7 (10 nM) % inh (BMP7; [4])
299 (ERV[Phe(4-COOH)]V[KCOpipzaa]R[3Pal(6-Ph)][KCOpipzaa]Y[Hyp][Phe(4-(4-F-Ph))]Y[Phe(4-COOH)][Phe(4-COOH)]SCG-NH2; not fully specified (N-terminus, bridges); also: cyclic peptide, ring closure not given here) [compound 299] | C (showed less than 30% of inhibitory activity in 0.2 nM-addition zone and showed 30% or more of inhibitory activity in 2 nM-addition zone) | ND (the inhibitory activity was less than 30% at the maximum concentration evaluated) | – | –
301 (ERV[Phe(4-COOH)]V[KCOpipzaa]R[3Pal(6-Ph)][KCOpipzaa]Y[Hyp][pBph3F]Y[Phe(4-COOH)][Phe(4-COOH)]SCG-NH2; not fully specified (N-terminus, bridges); also: cyclic peptide, ring closure not given here) [compound 301] | C (showed less than 30% of inhibitory activity in 0.2 nM-addition zone and showed 30% or more of inhibitory activity in 2 nM-addition zone) | E (showed less than 30% of inhibitory activity in 100 nM-addition zone and showed 30% or more of inhibitory activity in 1,000 nM-addition zone) | – | –
302 (ERV[Phe(4-COOH)]V[KCOpipzaa]R[3Pal(6-Ph)][KCOpipzaa]Y[Hyp][pBph2F]Y[Phe(4-COOH)][Phe(4-COOH)]SCG-NH2; not fully specified (N-terminus, bridges); also: cyclic peptide, ring closure not given here) [compound 302] | C (showed less than 30% of inhibitory activity in 0.2 nM-addition zone and showed 30% or more of inhibitory activity in 2 nM-addition zone) | E (showed less than 30% of inhibitory activity in 100 nM-addition zone and showed 30% or more of inhibitory activity in 1,000 nM-addition zone) | – | –
303 (ERV[Phe(4-COOH)]V[KCOpipzaa]R[Bph3C][KCOpipzaa]Y[Hyp][Bip]Y[Phe(4-COOH)][Phe(4-COOH)]SCG-NH2; not fully specified (N-terminus, bridges); also: cyclic peptide, ring closure not given here) [compound 303] | C (showed less than 30% of inhibitory activity in 0.2 nM-addition zone and showed 30% or more of inhibitory activity in 2 nM-addition zone) | E (showed less than 30% of inhibitory activity in 100 nM-addition zone and showed 30% or more of inhibitory activity in 1,000 nM-addition zone) | – | –
306 (ERV[Phe(4-COOH)][Cba][KCOpipzaa]R[3Pal(6-Ph)][KCOpipzaa]Y[Hyp][Bip]Y[Phe(4-COOH)][Phe(4-COOH)]SCG-NH2; not fully specified) [compound 306] | – | – | C (showed less than 30% of inhibitory activity in 0.2 nM-addition zone and showed 30% or more of inhibitory activity in 2 nM-addition zone) | E (showed less than 30% of inhibitory activity in 100 nM-addition zone and showed 30% or more of inhibitory activity in 1,000 nM-addition zone)
307 (ERV[Phe(4-COOH)][Chg][KCOpipzaa]R[3Pal(6-Ph)][KCOpipzaa]Y[Hyp][Bip]Y[Phe(4-COOH)][Phe(4-COOH)]SCG-NH2; not fully specified) [compound 307] | – | – | C (showed less than 30% of inhibitory activity in 0.2 nM-addition zone and showed 30% or more of inhibitory activity in 2 nM-addition zone) | E (showed less than 30% of inhibitory activity in 100 nM-addition zone and showed 30% or more of inhibitory activity in 1,000 nM-addition zone)
310 (ERV[Phe(4-COOH)][Ala(4-THP)][KCOpipzaa]R[3Pal(6-Ph)][KCOpipzaa]Y[Hyp][Bip]Y[Phe(4-COOH)][Phe(4-COOH)]SCG-NH2; not fully specified (N-terminus, bridges); also: cyclic peptide, ring closure not given here) [compound 310] | – | – | C (showed less than 30% of inhibitory activity in 0.2 nM-addition zone and showed 30% or more of inhibitory activity in 2 nM-addition zone) | E (showed less than 30% of inhibitory activity in 100 nM-addition zone and showed 30% or more of inhibitory activity in 1,000 nM-addition zone)
